# Tested on: AFY10X
# Experiment: epPCR-screening by replica-plating on xylose plus glucose media
# Assay type: cell-based, Saccharomyces cerevisiae
# Conditions: media with 1% xylose and increasing amounts of glucose (up to 5%)
# Text: Mutants of GAL2 were created using error-prone PCR (epPCR) and then screened in AFY10X as described in Farwick et al. (2014). This method is faster than evolutionary engineering experiments and more often generates multiple mutations per ORF that might have a unique combined effect. On the downside, there might be more silent mutations among the increased number of mutations which might aggravate the identification of the relevant mutations in each clone. The GAL2 ORF was amplified in an epPCR with short amplification primers, applying various mutation rates, and the purified fragments then again amplified for recombinational cloning in a second PCR. Functional plasmids were in vivo assembled from PCR fragments and linearized p426H7 vector directly in the screening strain AFY10X. Transformants were plated out on selective SCE2 plates and subsequently screened. Colonies were tested for improved growth on media with 1% xylose and increasing amounts of glucose (up to 5%) by replica-plating. Seven clones were selected and grown in SCE2 ura^− leu^−+G418+2-DOG and samples of these cultures streaked out on plates for comparison and to obtain single colonies. Five of these seven clones were confirmed to grow on xylose glucose media. The plasmids of two clones were successfully isolated as described (yeast DNA was digested with EcoRI) and sequenced.
row,Molecule,growth on medium (xylose + glucose)
1,"Gal2_ep3.1: Gal2 epPCR clone with mutations M107K V239L N376Y M435I L558S (protein, UniProt P13181 1-574, looked up, variant M107K V239L N376Y M435I L558S) Galactose transporter: MAVEENNMPVVSQQPQAGEDVISSLSKDSHLSAQSQKYSNDELKAGESGSEGSQSVPIEIPKKPMSEYVTVSLLCLCVAFGGFMFGWDTGTISGFVVQTDFLRRFGKKHKDGTHYLSNVRTGLIVAIFNIGCAFGGIILSKGGDMYGRKKGLSIVVSVYIVGIIIQIASINKWYQYFIGRIISGLGVGGIAVLCPMLISEIAPKHLRGTLVSCYQLMITAGIFLGYCTNYGTKSYSNSLQWRVPLGLCFAWSLFMIGALTLVPESPRYLCEVNKVEDAKRSIAKSNKVSPEDPAVQAELDLIMAGIEAEKLAGNASWGELFSTKTKVFQRLLMGVFVQMFQQLTGNNYFFYYGTVIFKSVGLDDSFETSIVIGVVYFASTFFSLWTVENLGHRKCLLLGAATMMACMVIYASVGVTRLYPHGKSQPSSKGAGNCIIVFTCFYIFCYATTWAPVAWVITAESFPLRVKSKCMALASASNWVWGFLIAFFTPFITSAINFYYGYVFMGCLVAMFFYVFFFVPETKGLSLEEIQELWEEGVLPWKSEGWIPSSRRGNNYDSEDLQHDDKPWYKAMLE",1 + 5
2,"Gal2_ep3.3: Gal2 epPCR clone with mutations T219S M255L R267C L299S N346I E528D (protein, UniProt P13181 1-574, looked up, variant T219S M255L R267C L299S N346I E528D) Galactose transporter: MAVEENNMPVVSQQPQAGEDVISSLSKDSHLSAQSQKYSNDELKAGESGSEGSQSVPIEIPKKPMSEYVTVSLLCLCVAFGGFMFGWDTGTISGFVVQTDFLRRFGMKHKDGTHYLSNVRTGLIVAIFNIGCAFGGIILSKGGDMYGRKKGLSIVVSVYIVGIIIQIASINKWYQYFIGRIISGLGVGGIAVLCPMLISEIAPKHLRGTLVSCYQLMISAGIFLGYCTNYGTKSYSNSVQWRVPLGLCFAWSLFLIGALTLVPESPCYLCEVNKVEDAKRSIAKSNKVSPEDPAVQAESDLIMAGIEAEKLAGNASWGELFSTKTKVFQRLLMGVFVQMFQQLTGINYFFYYGTVIFKSVGLDDSFETSIVIGVVNFASTFFSLWTVENLGHRKCLLLGAATMMACMVIYASVGVTRLYPHGKSQPSSKGAGNCMIVFTCFYIFCYATTWAPVAWVITAESFPLRVKSKCMALASASNWVWGFLIAFFTPFITSAINFYYGYVFMGCLVAMFFYVFFFVPETKGLSLDEIQELWEEGVLPWKSEGWIPSSRRGNNYDLEDLQHDDKPWYKAMLE",1 + 3

# Reference: US10308692B2, “Variants of GAL2 transporter and their uses” (Johann Wolfgang Goethe-Universität Frankfurt, priority 2014, dated 2019)
